Results as given in US10130693B2, “Peptides, combination of peptides and scaffolds for use in immunotherapeutic treatment of various cancers” (Immatics Biotechnologies GmbH, priority 2015, dated 2018).

Target: HLA-A*02:01 (Homo sapiens, UniProt P04439, D140Y/D185E/D98H/E176V/E277Q/G131W/G231S/I119V/I121R/I166T/I218V/L300P/L318F/N151K/N90K/P208A/P217A/Q86G/Q94H/R138H/R169H/T345S)
Experiment: MHC binding assay, UV-ligand exchange with beta2m ELISA (exchange yield), HLA-A*02
Settings: binding to HLA-A*02 ranged by peptide exchange yield
From the text: Candidate peptides for T cell based therapies according to the present invention were further tested for their MHC binding capacity (affinity). The individual peptide-MHC complexes were produced by UV-ligand exchange, where a UV-sensitive peptide is cleaved upon UV-irradiation, and exchanged with the peptide of interest as analyzed. Only peptide candidates that can effectively bind and stabilize the peptide-receptive MHC molecules prevent dissociation of the MHC complexes. To determine the yield of the exchange reaction, an ELISA was performed based on the detection of the light chain (β2m) of stabilized MHC complexes. The assay was performed as generally described in Rodenko et al. (Rodenko et al., 2006).
96 well MAXISorp plates (NUNC) were coated over night with 2 ug/ml streptavidin in PBS at room temperature, washed 4× and blocked for 1 h at 37° C. in 2% BSA containing blocking buffer. […] Peptide-MHC monomers of the UV-exchange reaction were diluted 100 fold in blocking buffer. Samples were incubated for 1 h at 37° C., washed four times, incubated with 2 ug/ml HRP conjugated anti-β2m for 1h at 37° C., washed again and detected with TMB solution that is stopped with […]. Absorption was measured at 450 nm. Candidate peptides that show a high exchange yield (preferably higher than 50%, most preferred higher than 75%) are generally preferred for a generation and production of antibodies or fragments thereof, and/or T cell receptors or fragments thereof, as they show sufficient avidity to the MHC molecules and prevent dissociation of the MHC complexes.

Row | Substance | Peptide exchange (MHC class I binding score)
1 | 27 (KVFGDLDQV; listed as Homo sapiens) [compound 27] | +++ (50%-75% = +++)
2 | 28 (TLYSMDLMKV; listed as Homo sapiens) [compound 28] | +++ (50%-75% = +++)
3 | 29 (TLCNKTFTA; listed as Homo sapiens) [compound 29] | +++ (50%-75% = +++)
4 | 31 (ALSDETKNNWEV; listed as Homo sapiens) [compound 31] | ++++ (>=75% = ++++)
5 | 32 (ILADEAFFSV; listed as Homo sapiens) [compound 32] | +++ (50%-75% = +++)
6 | 33 (LLLPLLPPLSPSLG; listed as Homo sapiens) [compound 33] | +++ (50%-75% = +++)
7 | 35 (YVLPKLYVKL; listed as Homo sapiens) [compound 35] | ++ (20%-49% = ++)
8 | 36 (KLYGIEIEV; listed as Homo sapiens) [compound 36] | ++++ (>=75% = ++++)
9 | 37 (ALINDILGELVKL; listed as Homo sapiens) [compound 37] | +++ (50%-75% = +++)
10 | 38 (KMQEDLVTL; listed as Homo sapiens) [compound 38] | +++ (50%-75% = +++)
11 | 39 (ALMAVVSGL; listed as Homo sapiens) [compound 39] | +++ (50%-75% = +++)
12 | 40 (SLLALPQDLQA; listed as Homo sapiens) [compound 40] | +++ (50%-75% = +++)
13 | 41 (FVLPLVVTL; listed as Homo sapiens) [compound 41] | +++ (50%-75% = +++)
14 | 42 (VLSPFILTL; listed as Homo sapiens) [compound 42] | +++ (50%-75% = +++)
15 | 44 (GLLWQIIKV; listed as Homo sapiens) [compound 44] | ++ (20%-49% = ++)
16 | 45 (VLGPTPELV; listed as Homo sapiens) [compound 45] | +++ (50%-75% = +++)
17 | 46 (SLAKHGIVAL; listed as Homo sapiens) [compound 46] | +++ (50%-75% = +++)
18 | 47 (GLYQAQVNL; listed as Homo sapiens) [compound 47] | +++ (50%-75% = +++)
19 | 48 (TLDHKPVTV; listed as Homo sapiens) [compound 48] | ++ (20%-49% = ++)
20 | 49 (LLDESKLTL; listed as Homo sapiens) [compound 49] | +++ (50%-75% = +++)
21 | 50 (EYALLYHTL; listed as Homo sapiens) [compound 50] | ++ (20%-49% = ++)

Row | Substance | Peptide exchange (MHC class I binding score)
22 | 51 (LLLDGDFTL; listed as Homo sapiens) [compound 51] | +++ (50%-75% = +++)
23 | 52 (ELLSSIFFL; listed as Homo sapiens) [compound 52] | +++ (50%-75% = +++)
24 | 53 (SLLSHVIVA; listed as Homo sapiens) [compound 53] | +++ (50%-75% = +++)
25 | 54 (FINPKGNWLL; listed as Homo sapiens) [compound 54] | +++ (50%-75% = +++)
26 | 55 (IASAIVNEL; listed as Homo sapiens) [compound 55] | ++ (20%-49% = ++)
27 | 56 (KILDLTRVL; listed as Homo sapiens) [compound 56] | ++ (20%-49% = ++)
28 | 57 (VLISSTVRL; listed as Homo sapiens) [compound 57] | ++ (20%-49% = ++)
29 | 58 (ALDDSLTSL; listed as Homo sapiens) [compound 58] | ++ (20%-49% = ++)
30 | 59 (ALTKILAEL; listed as Homo sapiens) [compound 59] | +++ (50%-75% = +++)
31 | 60 (FLIDTSASM; listed as Homo sapiens) [compound 60] | ++ (20%-49% = ++)
32 | 61 (HLPDFVKQL; listed as Homo sapiens) [compound 61] | ++ (20%-49% = ++)
33 | 62 (SLFNQEVQI; listed as Homo sapiens) [compound 62] | +++ (50%-75% = +++)
34 | 63 (TLSSERDFAL; listed as Homo sapiens) [compound 63] | + (<20% = +)
35 | 64 (GLSSSSYEL; listed as Homo sapiens) [compound 64] | ++ (20%-49% = ++)
36 | 65 (KLDGICWQV; listed as Homo sapiens) [compound 65] | +++ (50%-75% = +++)
37 | 66 (FITDFYTTV; listed as Homo sapiens) [compound 66] | +++ (50%-75% = +++)
38 | 67 (GVIETVTSL; listed as Homo sapiens) [compound 67] | ++ (20%-49% = ++)
39 | 69 (GIYDGILHSI; listed as Homo sapiens) [compound 69] | +++ (50%-75% = +++)
40 | 70 (GLFSQHFNL; listed as Homo sapiens) [compound 70] | +++ (50%-75% = +++)
41 | 71 (GLITVDIAL; listed as Homo sapiens) [compound 71] | +++ (50%-75% = +++)
42 | 72 (GMIGFQVLL; listed as Homo sapiens) [compound 72] | +++ (50%-75% = +++)

Row | Substance | Peptide exchange (MHC class I binding score)
43 | 74 (ILDETLENV; listed as Homo sapiens) [compound 74] | ++ (20%-49% = ++)
44 | 75 (ILDNVKNLL; listed as Homo sapiens) [compound 75] | +++ (50%-75% = +++)
45 | 76 (ILLDESNFNHFL; listed as Homo sapiens) [compound 76] | +++ (50%-75% = +++)
46 | 77 (IVLSTIASV; listed as Homo sapiens) [compound 77] | +++ (50%-75% = +++)
47 | 78 (LLWGHPRVA; listed as Homo sapiens) [compound 78] | +++ (50%-75% = +++)
48 | 79 (SLVPLQILL; listed as Homo sapiens) [compound 79] | ++++ (>=75% = ++++)
49 | 80 (TLDEYLTYL; listed as Homo sapiens) [compound 80] | +++ (50%-75% = +++)
50 | 81 (VLFLGKLLV; listed as Homo sapiens) [compound 81] | ++ (20%-49% = ++)
51 | 82 (VLLRVLIL; listed as Homo sapiens) [compound 82] | ++ (20%-49% = ++)
52 | 83 (ELLEYLPQL; listed as Homo sapiens) [compound 83] | +++ (50%-75% = +++)
53 | 84 (FLEEEITRV; listed as Homo sapiens) [compound 84] | +++ (50%-75% = +++)
54 | 85 (STLDGSLHAV; listed as Homo sapiens) [compound 85] | +++ (50%-75% = +++)
55 | 87 (YLTEVFLHVV; listed as Homo sapiens) [compound 87] | +++ (50%-75% = +++)
56 | 88 (ILLNTEDLASL; listed as Homo sapiens) [compound 88] | +++ (50%-75% = +++)
57 | 89 (YLVAHNLLL; listed as Homo sapiens) [compound 89] | +++ (50%-75% = +++)
58 | 90 (GAVAEEVLSSI; listed as Homo sapiens) [compound 90] | + (<20% = +)
59 | 91 (SSLEPQIQPV; listed as Homo sapiens) [compound 91] | + (<20% = +)
60 | 92 (LLRGPPVARA; listed as Homo sapiens) [compound 92] | ++ (20%-49% = ++)
61 | 93 (SLLTQPIFL; listed as Homo sapiens) [compound 93] | +++ (50%-75% = +++)
